# Results as given in US20230380451A1, “MEANS AND METHODS TO DETOXIFY MYCOTOXINS” (priority 2020, published 2023).
# Legend:
# [1] = assay type: biochemical; conditions: for pH of maximum DON degradation activity (pH optimum): pH 2 to pH 10 tested, 30° C.
# Method: (§1) To determine the transformation of DON to epi-THS by Akr I-III, described herein, the following assay was performed. An assay buffer was prepared containing 40 ppm DON, 1 mM NADPH in Teorell Stenhagen (TS) buffer, pH 6.0 (Östling and Virtama, Acta Physiologica Scandinavica, 1946, 11:4, 289-293). Tubes containing the assay buffer were transferred in a heating block at 30° C. The reaction was started by addition of Akr I-III to a final concentration of 200 nM in a final reaction volume of 200 μL. Samples were taken before reaction start, and 2, 5, 10, 15 and 20 min after reaction start. DON transformation reactions in these samples were stopped by mixing with absolute methanol at a 1:2 ratio, followed by a 1:100 dilution with 40% methanol. The concentrations of DON and epi-THS in the samples were determined with liquid chromatography-mass spectrometry (LC-MS) on a Sciex 5500 triple quadrupole mass spectrometer coupled to Agilent 1290 series UHPLC system, using the following MS parameters: Acquisition duration: 4 min; Scan Type: MRM (MRM); Polarity: Negative; Ion Source: Turbo Spray.
# For LC, eluent A was 5% methanol, 94.9% water (ultrapure), 0.1% acetic acid, and eluent B was 99.9% methanol, 0.1% acetic acid, using a Phenomenex Kinetex 2.6 μm biphenyl 150×2.1 mm column, an injection volume of 1 μL and the protocol shown in Table 3.
# By applying the DON transformation assay basically as described in Example 3, but at pH values ranging from pH 2 to pH 10, the pH optima for DON degradation of Akr I-III (SEQ ID NOs: 1-3) were determined. Akr I and Akr II reached maximum activities at pH 6.0, Akr III at pH 6.5.
# By applying the DON transformation assay basically as described in Example 3, but at different temperatures ranging from 14.9° C. to 55.7° C., the temperature optima for the DON degradation activities of Akr I-III were determined. Akr I maximum activity was shown at approximately 35° C., Akr II at approximately 31° C., and Akr III at temperatures from approximately 28° C. to 33° C. (see FIG. 4). […] For Akr I even at temperatures below 20° C.
# [2] = Storage stability at different pH values, residual DON transformation activity; assay type: biochemical; conditions: storage at 30° C.
# Method: as §1
# The storage stability of Akr I-III at different pH values was tested by incubating 1 μM enzyme in TS buffer solutions with a pH of 3.0-10.0 for 4 h at 30° C. in standard 1.5 ml Eppendorf tubes. Every hour, a DON transformation assay was conducted as described in Example 3. The starting activity at time 0 min was set to 100% and the relative residual activities were determined throughout the incubation. For the DON transformation assays, 80 μl of the storage solution were added to an assay reaction with a final volume of 400 μl, which corresponds to a 1:5 dilution of the storage solution. Akr I retained more than 93% activity during 4 hours at 30° C. from pH 4.0-10.0. Akr II retained 30% to 93% activity during 4 hours at 30° C. from pH […] retained 27% to 85% activity during 4 hours at 30° C. from pH 4.0-9.0. Akr I-III retained more than 40% of their activity for 4 hours at 30° C. from pH 4.0 to pH 8.0.
# [3] = pH 3.0, 0 h (starting activity set to 100%)
# [4] = pH 4.0, 0 h (starting activity set to 100%)
# [5] = pH 5.0, 0 h (starting activity set to 100%)
# [6] = pH 6.0, 0 h (starting activity set to 100%)
# [7] = pH 7.0.0, 0 h (starting activity set to 100%)
# [8] = pH 8.0, 0 h (starting activity set to 100%)
# [9] = pH 9.0.0, 0 h (starting activity set to 100%)
# [10] = pH 10.0, 0 h (starting activity set to 100%)
molecule,measurement,setting,value
"Akr II: artificial amino acid sequence, variant of a wild type aldo-keto reductase (protein, ArkII) MRTTEIAQGLKVSNLCIGAGPLGGMPTAFGYDVSEERGIATVQAVFDSPINFMDTSSEYGGSEARIGKVIREGLMPKGFVISSKADAEGEGVGRRGDFSAKQVRASFELSLERLGLTHLDVYFLHDPEKFPFEQVMARGGAMEELLRLKDEGLVGLVGVAGGDVLEMARYVDTGSLDILLNYGRYTLLDRSADSLITKVSDAGMAFLNAGPYASGLLAAPRGGSAWYQYAPPDATALQAVDQLHELCESFDVSLRSVALQFSMRDPRITSTVVGLSRPERVRALLDDEAAEIPAELWEQLPAPLNGDIVLPG",temperature of maximum DON degradation activity (temperature optimum),[1]; 14.9° C. to 55.7° C. tested,approximately 31 °C
same,pH of maximum DON degradation activity (pH optimum),[1],6.0
same,Relative DON-transformation activity,[2]; [3],100.0%
same,Relative DON-transformation activity,"[2]; pH 3.0, 1 h",34.5%
same,Relative DON-transformation activity,"[2]; pH 3.0, 2 h",1.1%
same,Relative DON-transformation activity,"[2]; pH 3.0, 3 h",0.0%
same,Relative DON-transformation activity,"[2]; pH 3.0, 4 h",0.0%
same,Relative DON-transformation activity,[2]; [4],100.0%
same,Relative DON-transformation activity,"[2]; pH 4.0, 1 h",99.3%
same,Relative DON-transformation activity,"[2]; pH 4.0, 2 h",96.6%
same,Relative DON-transformation activity,"[2]; pH 4.0, 3 h",87.1%
same,Relative DON-transformation activity,"[2]; pH 4.0, 4 h",89.0%
same,Relative DON-transformation activity,[2]; [5],100.0%
same,Relative DON-transformation activity,"[2]; pH 5.0, 1 h",100.1%
same,Relative DON-transformation activity,"[2]; pH 5.0, 2 h",99.8%
same,Relative DON-transformation activity,"[2]; pH 5.0, 3 h",99.3%
same,Relative DON-transformation activity,"[2]; pH 5.0, 4 h",92.4%
same,Relative DON-transformation activity,[2]; [6],100.0%
same,Relative DON-transformation activity,"[2]; pH 6.0, 1 h",77.3%
same,Relative DON-transformation activity,"[2]; pH 6.0, 2 h",85.1%
same,Relative DON-transformation activity,"[2]; pH 6.0, 3 h",77.6%
same,Relative DON-transformation activity,"[2]; pH 6.0, 4 h",61.8%
same,Relative DON-transformation activity,[2]; [7],100.0%
same,Relative DON-transformation activity,"[2]; pH 7.0.0, 1 h",79.6%
same,Relative DON-transformation activity,"[2]; pH 7.0.0, 2 h",64.5%
same,Relative DON-transformation activity,"[2]; pH 7.0.0, 3 h",56.9%
same,Relative DON-transformation activity,"[2]; pH 7.0.0, 4 h",57.4%
same,Relative DON-transformation activity,[2]; [8],100.0%
same,Relative DON-transformation activity,"[2]; pH 8.0, 1 h",85.1%
same,Relative DON-transformation activity,"[2]; pH 8.0, 2 h",68.3%
same,Relative DON-transformation activity,"[2]; pH 8.0, 3 h",53.2%
same,Relative DON-transformation activity,"[2]; pH 8.0, 4 h",40.9%
same,Relative DON-transformation activity,[2]; [9],100.0%
same,Relative DON-transformation activity,"[2]; pH 9.0.0, 1 h",76.5%
same,Relative DON-transformation activity,"[2]; pH 9.0.0, 2 h",54.7%
same,Relative DON-transformation activity,"[2]; pH 9.0.0, 3 h",36.1%
same,Relative DON-transformation activity,"[2]; pH 9.0.0, 4 h",29.9%
same,Relative DON-transformation activity,[2]; [10],100.0%
same,Relative DON-transformation activity,"[2]; pH 10.0, 1 h",54.4%
same,Relative DON-transformation activity,"[2]; pH 10.0, 2 h",37.7%
same,Relative DON-transformation activity,"[2]; pH 10.0, 3 h",13.9%
same,Relative DON-transformation activity,"[2]; pH 10.0, 4 h",7.2%
"Akr III: artificial amino acid sequence, variant of a wild type aldo-keto reductase (protein, ArkIII) MRTTEIAQGLKVSNLCIGAGPLGGMPTAFGYDVSEERGIATVQAVFDSPINFMDTSSEYGGSEARIGKVIREGRMPKGFVISSKADAEGEGVGRRGDFSAKQVRASFELSLERLGLTHLDVYFLHDPEKFPFEQVMARGGAMEELLRLKDEGLVGLVGVAGGDVLEMARYVDTGSLDILLNYGRYTILDRSADSLITKVSDAGMAFLNAGPYASGLLAAPRGGSAWYQYAPPDATALQAVDQLHELCESFDVSLRSVALQFSMRDPRITSTVVGLSRPERVRALLDDEAAEIPAELWEQLPAPLNGDIVLPR",pH of maximum DON degradation activity (pH optimum),[1],6.5
same,Relative DON-transformation activity,[2]; [3],100.0%
same,Relative DON-transformation activity,"[2]; pH 3.0, 1 h",13.5%
same,Relative DON-transformation activity,"[2]; pH 3.0, 2 h",19.3%
same,Relative DON-transformation activity,"[2]; pH 3.0, 3 h",0.0%
same,Relative DON-transformation activity,"[2]; pH 3.0, 4 h",0.0%
same,Relative DON-transformation activity,[2]; [4],100.0%
same,Relative DON-transformation activity,"[2]; pH 4.0, 1 h",95.1%
same,Relative DON-transformation activity,"[2]; pH 4.0, 2 h",84.4%
same,Relative DON-transformation activity,"[2]; pH 4.0, 3 h",74.8%
same,Relative DON-transformation activity,"[2]; pH 4.0, 4 h",57.7%
same,Relative DON-transformation activity,[2]; [5],100.0%
same,Relative DON-transformation activity,"[2]; pH 5.0, 1 h",97.7%
same,Relative DON-transformation activity,"[2]; pH 5.0, 2 h",96.3%
same,Relative DON-transformation activity,"[2]; pH 5.0, 3 h",90.7%
same,Relative DON-transformation activity,"[2]; pH 5.0, 4 h",85.2%
same,Relative DON-transformation activity,[2]; [6],100.0%
same,Relative DON-transformation activity,"[2]; pH 6.0, 1 h",97.8%
same,Relative DON-transformation activity,"[2]; pH 6.0, 2 h",94.9%
same,Relative DON-transformation activity,"[2]; pH 6.0, 3 h",93.1%
same,Relative DON-transformation activity,"[2]; pH 6.0, 4 h",78.9%
same,Relative DON-transformation activity,[2]; [7],100.0%
same,Relative DON-transformation activity,"[2]; pH 7.0.0, 1 h",93.0%
same,Relative DON-transformation activity,"[2]; pH 7.0.0, 2 h",91.3%
same,Relative DON-transformation activity,"[2]; pH 7.0.0, 3 h",85.1%
same,Relative DON-transformation activity,"[2]; pH 7.0.0, 4 h",74.0%
same,Relative DON-transformation activity,[2]; [8],100.0%
same,Relative DON-transformation activity,"[2]; pH 8.0, 1 h",94.2%
same,Relative DON-transformation activity,"[2]; pH 8.0, 2 h",77.9%
same,Relative DON-transformation activity,"[2]; pH 8.0, 3 h",69.0%
same,Relative DON-transformation activity,"[2]; pH 8.0, 4 h",57.6%
same,Relative DON-transformation activity,[2]; [9],100.0%
same,Relative DON-transformation activity,"[2]; pH 9.0.0, 1 h",76.3%
same,Relative DON-transformation activity,"[2]; pH 9.0.0, 2 h",61.3%
same,Relative DON-transformation activity,"[2]; pH 9.0.0, 3 h",54.1%
same,Relative DON-transformation activity,"[2]; pH 9.0.0, 4 h",27.4%
same,Relative DON-transformation activity,[2]; [10],100.0%
same,Relative DON-transformation activity,"[2]; pH 10.0, 1 h",47.0%
same,Relative DON-transformation activity,"[2]; pH 10.0, 2 h",27.1%
same,Relative DON-transformation activity,"[2]; pH 10.0, 3 h",17.0%
same,Relative DON-transformation activity,"[2]; pH 10.0, 4 h",15.4%
